Patent US20180291083A1

Target: HLA-B*07:02 (human)
Test: UV ligand exchange ELISA; exchange yield grade
Settings: remark: other sources report otherwise

peptide exchange yield: 20 to 50%
Binder: YPGWHSTTI […]
